molecular target: T1, VEGF (human, UniProt P15692-4 27-191, limits assumed); assay: competitive phage-ELISA, relative to pY0192
T1 construct: Biotinylated in the KDR-IgG ELISA, amine-coupled to the chip in BIAcore; also called biotinylated VEGF; vascular endothelial growth factor
Protocol: In such an assay, phages were first serially diluted to determine a fractional saturation titer which was then held constant and used to incubate with varying concentrations of VEGF (starting at 200 nM to 0 nM) in solution. The mixture was then transferred onto plate precoated with VEGF (2 μg/mL) and blocked with 5% instant milk, and allowed to equilibrate for 1 hour at room temperature. Thereafter, the phage solution was removed and the remaining bound phages were detected with a solution of rabbit anti-phage antibody mixed with goat anti-rabbit conjugate of horse radish peroxidase. After an hour incubation at room temperature, the plate was developed with a chromogenic substrate, o-phenylenediamine (Sigma). The reaction was stopped with addition of ½ volume of 2.5 M H₂SO₄. Optical density at 492 nm was measured on a spectrophotometric plate reader.
IC50's were determined in a competitive phage-ELISA assay.

T1 sequence (P15692 other isoform, or with tags, fused parts or gaps limits assumed): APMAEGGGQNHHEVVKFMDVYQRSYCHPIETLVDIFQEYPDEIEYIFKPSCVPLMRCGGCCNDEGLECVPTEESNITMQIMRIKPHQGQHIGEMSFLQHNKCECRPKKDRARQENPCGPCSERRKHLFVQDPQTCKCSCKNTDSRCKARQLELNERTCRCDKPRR

Binder	IC50 (mut)/IC50 (wt)
pY0192 VH H101A (Fab, V domains shown, Ala-scan variant of pY0192; Fab on phage) VH: EVQLVESGGGLVQPGGSLRLSCAASGYTFTNYGINWVRQAPGKGLEWVGWINTYTGEPTYAADFKRRFTFSLDTSKSTAYLQMNSLRAEDTAVYYCAKYPAYYGSSHWYFDVWGQGTL VL: DIQLTQSPSSLSASVGDRVTITCRANEQLSNYLNWYQQKPGKAPKVLIYFTSSLHSGVPSRFSGSGSGTDFTLTISSLQPEDFATYYCQQYSTVPWTFGQGTKVEIKR	4 ratio
pY0192 VH T28A (Fab, V domains shown, Ala-scan variant of pY0192; Fab on phage) VH: EVQLVESGGGLVQPGGSLRLSCAASGYAFTNYGINWVRQAPGKGLEWVGWINTYTGEPTYAADFKRRFTFSLDTSKSTAYLQMNSLRAEDTAVYYCAKYPHYYGSSHWYFDVWGQGTL VL: DIQLTQSPSSLSASVGDRVTITCRANEQLSNYLNWYQQKPGKAPKVLIYFTSSLHSGVPSRFSGSGSGTDFTLTISSLQPEDFATYYCQQYSTVPWTFGQGTKVEIKR	1 ratio
pY0192 VH K65A (Fab, V domains shown, Ala-scan variant of pY0192; Fab on phage) VH: EVQLVESGGGLVQPGGSLRLSCAASGYTFTNYGINWVRQAPGKGLEWVGWINTYTGEPTYAADFARRFTFSLDTSKSTAYLQMNSLRAEDTAVYYCAKYPHYYGSSHWYFDVWGQGTL VL: DIQLTQSPSSLSASVGDRVTITCRANEQLSNYLNWYQQKPGKAPKVLIYFTSSLHSGVPSRFSGSGSGTDFTLTISSLQPEDFATYYCQQYSTVPWTFGQGTKVEIKR	1 ratio
pY0192 VH T55A (Fab, V domains shown, Ala-scan variant of pY0192; Fab on phage) VH: EVQLVESGGGLVQPGGSLRLSCAASGYTFTNYGINWVRQAPGKGLEWVGWINTYAGEPTYAADFKRRFTFSLDTSKSTAYLQMNSLRAEDTAVYYCAKYPHYYGSSHWYFDVWGQGTL VL: DIQLTQSPSSLSASVGDRVTITCRANEQLSNYLNWYQQKPGKAPKVLIYFTSSLHSGVPSRFSGSGSGTDFTLTISSLQPEDFATYYCQQYSTVPWTFGQGTKVEIKR	4 ratio
pY0192 VH Y60A (Fab, V domains shown, Ala-scan variant of pY0192; Fab on phage) VH: EVQLVESGGGLVQPGGSLRLSCAASGYTFTNYGINWVRQAPGKGLEWVGWINTYTGEPTAAADFKRRFTFSLDTSKSTAYLQMNSLRAEDTAVYYCAKYPHYYGSSHWYFDVWGQGTL VL: DIQLTQSPSSLSASVGDRVTITCRANEQLSNYLNWYQQKPGKAPKVLIYFTSSLHSGVPSRFSGSGSGTDFTLTISSLQPEDFATYYCQQYSTVPWTFGQGTKVEIKR	2 ratio
pY0192 VH Y102A (Fab, V domains shown, Ala-scan variant of pY0192; Fab on phage) VH: EVQLVESGGGLVQPGGSLRLSCAASGYTFTNYGINWVRQAPGKGLEWVGWINTYTGEPTYAADFKRRFTFSLDTSKSTAYLQMNSLRAEDTAVYYCAKYPHAYGSSHWYFDVWGQGTL VL: DIQLTQSPSSLSASVGDRVTITCRANEQLSNYLNWYQQKPGKAPKVLIYFTSSLHSGVPSRFSGSGSGTDFTLTISSLQPEDFATYYCQQYSTVPWTFGQGTKVEIKR	4 ratio
pY0192 VH P100A (Fab, V domains shown, Ala-scan variant of pY0192; Fab on phage; also called P1OOA) VH: EVQLVESGGGLVQPGGSLRLSCAASGYTFTNYGINWVRQAPGKGLEWVGWINTYTGEPTYAADFKRRFTFSLDTSKSTAYLQMNSLRAEDTAVYYCAKYAHYYGSSHWYFDVWGQGTL VL: DIQLTQSPSSLSASVGDRVTITCRANEQLSNYLNWYQQKPGKAPKVLIYFTSSLHSGVPSRFSGSGSGTDFTLTISSLQPEDFATYYCQQYSTVPWTFGQGTKVEIKR	38 ratio
pY0192 VH S105A (Fab, V domains shown, Ala-scan variant of pY0192; Fab on phage) VH: EVQLVESGGGLVQPGGSLRLSCAASGYTFTNYGINWVRQAPGKGLEWVGWINTYTGEPTYAADFKRRFTFSLDTSKSTAYLQMNSLRAEDTAVYYCAKYPHYYGASHWYFDVWGQGTL VL: DIQLTQSPSSLSASVGDRVTITCRANEQLSNYLNWYQQKPGKAPKVLIYFTSSLHSGVPSRFSGSGSGTDFTLTISSLQPEDFATYYCQQYSTVPWTFGQGTKVEIKR	1 ratio
pY0192 VH T53A (Fab, V domains shown, Ala-scan variant of pY0192; Fab on phage) VH: EVQLVESGGGLVQPGGSLRLSCAASGYTFTNYGINWVRQAPGKGLEWVGWINAYTGEPTYAADFKRRFTFSLDTSKSTAYLQMNSLRAEDTAVYYCAKYPHYYGSSHWYFDVWGQGTL VL: DIQLTQSPSSLSASVGDRVTITCRANEQLSNYLNWYQQKPGKAPKVLIYFTSSLHSGVPSRFSGSGSGTDFTLTISSLQPEDFATYYCQQYSTVPWTFGQGTKVEIKR	9 ratio
pY0192 VH P58A (Fab, V domains shown, Ala-scan variant of pY0192; Fab on phage) VH: EVQLVESGGGLVQPGGSLRLSCAASGYTFTNYGINWVRQAPGKGLEWVGWINTYTGEATYAADFKRRFTFSLDTSKSTAYLQMNSLRAEDTAVYYCAKYPHYYGSSHWYFDVWGQGTL VL: DIQLTQSPSSLSASVGDRVTITCRANEQLSNYLNWYQQKPGKAPKVLIYFTSSLHSGVPSRFSGSGSGTDFTLTISSLQPEDFATYYCQQYSTVPWTFGQGTKVEIKR	1 ratio
pY0192 VH Y27A (Fab, V domains shown, Ala-scan variant of pY0192; Fab on phage) VH: EVQLVESGGGLVQPGGSLRLSCAASGATFTNYGINWVRQAPGKGLEWVGWINTYTGEPTYAADFKRRFTFSLDTSKSTAYLQMNSLRAEDTAVYYCAKYPHYYGSSHWYFDVWGQGTL VL: DIQLTQSPSSLSASVGDRVTITCRANEQLSNYLNWYQQKPGKAPKVLIYFTSSLHSGVPSRFSGSGSGTDFTLTISSLQPEDFATYYCQQYSTVPWTFGQGTKVEIKR	34 ratio
pY0192 VH N35A (Fab, V domains shown, Ala-scan variant of pY0192; Fab on phage) VH: EVQLVESGGGLVQPGGSLRLSCAASGYTFTNYGIAWVRQAPGKGLEWVGWINTYTGEPTYAADFKRRFTFSLDTSKSTAYLQMNSLRAEDTAVYYCAKYPHYYGSSHWYFDVWGQGTL VL: DIQLTQSPSSLSASVGDRVTITCRANEQLSNYLNWYQQKPGKAPKVLIYFTSSLHSGVPSRFSGSGSGTDFTLTISSLQPEDFATYYCQQYSTVPWTFGQGTKVEIKR	66 ratio
pY0192 VH R66A (Fab, V domains shown, Ala-scan variant of pY0192; Fab on phage) VH: EVQLVESGGGLVQPGGSLRLSCAASGYTFTNYGINWVRQAPGKGLEWVGWINTYTGEPTYAADFKARFTFSLDTSKSTAYLQMNSLRAEDTAVYYCAKYPHYYGSSHWYFDVWGQGTL VL: DIQLTQSPSSLSASVGDRVTITCRANEQLSNYLNWYQQKPGKAPKVLIYFTSSLHSGVPSRFSGSGSGTDFTLTISSLQPEDFATYYCQQYSTVPWTFGQGTKVEIKR	1 ratio
pY0192 VH H107A (Fab, V domains shown, Ala-scan variant of pY0192; Fab on phage) VH: EVQLVESGGGLVQPGGSLRLSCAASGYTFTNYGINWVRQAPGKGLEWVGWINTYTGEPTYAADFKRRFTFSLDTSKSTAYLQMNSLRAEDTAVYYCAKYPHYYGSSAWYFDVWGQGTL VL: DIQLTQSPSSLSASVGDRVTITCRANEQLSNYLNWYQQKPGKAPKVLIYFTSSLHSGVPSRFSGSGSGTDFTLTISSLQPEDFATYYCQQYSTVPWTFGQGTKVEIKR	2 ratio
pY0192 VH Y54A (Fab, V domains shown, Ala-scan variant of pY0192; Fab on phage) VH: EVQLVESGGGLVQPGGSLRLSCAASGYTFTNYGINWVRQAPGKGLEWVGWINTATGEPTYAADFKRRFTFSLDTSKSTAYLQMNSLRAEDTAVYYCAKYPHYYGSSHWYFDVWGQGTL VL: DIQLTQSPSSLSASVGDRVTITCRANEQLSNYLNWYQQKPGKAPKVLIYFTSSLHSGVPSRFSGSGSGTDFTLTISSLQPEDFATYYCQQYSTVPWTFGQGTKVEIKR	9 ratio
pY0192 VH I51A (Fab, V domains shown, Ala-scan variant of pY0192; Fab on phage) VH: EVQLVESGGGLVQPGGSLRLSCAASGYTFTNYGINWVRQAPGKGLEWVGWANTYTGEPTYAADFKRRFTFSLDTSKSTAYLQMNSLRAEDTAVYYCAKYPHYYGSSHWYFDVWGQGTL VL: DIQLTQSPSSLSASVGDRVTITCRANEQLSNYLNWYQQKPGKAPKVLIYFTSSLHSGVPSRFSGSGSGTDFTLTISSLQPEDFATYYCQQYSTVPWTFGQGTKVEIKR	4 ratio
pY0192 VH T30A (Fab, V domains shown, Ala-scan variant of pY0192; Fab on phage) VH: EVQLVESGGGLVQPGGSLRLSCAASGYTFANYGINWVRQAPGKGLEWVGWINTYTGEPTYAADFKRRFTFSLDTSKSTAYLQMNSLRAEDTAVYYCAKYPHYYGSSHWYFDVWGQGTL VL: DIQLTQSPSSLSASVGDRVTITCRANEQLSNYLNWYQQKPGKAPKVLIYFTSSLHSGVPSRFSGSGSGTDFTLTISSLQPEDFATYYCQQYSTVPWTFGQGTKVEIKR	1 ratio
pY0192 VH Y103A (Fab, V domains shown, Ala-scan variant of pY0192; Fab on phage) VH: EVQLVESGGGLVQPGGSLRLSCAASGYTFTNYGINWVRQAPGKGLEWVGWINTYTGEPTYAADFKRRFTFSLDTSKSTAYLQMNSLRAEDTAVYYCAKYPHYAGSSHWYFDVWGQGTL VL: DIQLTQSPSSLSASVGDRVTITCRANEQLSNYLNWYQQKPGKAPKVLIYFTSSLHSGVPSRFSGSGSGTDFTLTISSLQPEDFATYYCQQYSTVPWTFGQGTKVEIKR	5 ratio
pY0192 VH T59A (Fab, V domains shown, Ala-scan variant of pY0192; Fab on phage) VH: EVQLVESGGGLVQPGGSLRLSCAASGYTFTNYGINWVRQAPGKGLEWVGWINTYTGEPAYAADFKRRFTFSLDTSKSTAYLQMNSLRAEDTAVYYCAKYPHYYGSSHWYFDVWGQGTL VL: DIQLTQSPSSLSASVGDRVTITCRANEQLSNYLNWYQQKPGKAPKVLIYFTSSLHSGVPSRFSGSGSGTDFTLTISSLQPEDFATYYCQQYSTVPWTFGQGTKVEIKR	3 ratio
pY0192 VH I34A (Fab, V domains shown, Ala-scan variant of pY0192; Fab on phage) VH: EVQLVESGGGLVQPGGSLRLSCAASGYTFTNYGANWVRQAPGKGLEWVGWINTYTGEPTYAADFKRRFTFSLDTSKSTAYLQMNSLRAEDTAVYYCAKYPHYYGSSHWYFDVWGQGTL VL: DIQLTQSPSSLSASVGDRVTITCRANEQLSNYLNWYQQKPGKAPKVLIYFTSSLHSGVPSRFSGSGSGTDFTLTISSLQPEDFATYYCQQYSTVPWTFGQGTKVEIKR	6 ratio

Reference: US20050112126A1 (Genentech, published 2005)
